Test results published in article doi:10.1101/2021.05.24.445519 (bioRxiv, 2021).

Biological target: the molecule itself
Test: crystal structure

B1: alanine:glyoxylate aminotransferase 1, minor allele (AGT-Mi), purified recombinant (enzyme, human)
chain: MASHKLLVTPLKALLKPLSIPNQLLLGPGPSNLPPRIMAAGGLQMIGSMSKDMYQIMDEIKEGIQYVFQTRNPLTLVISGSGHCALEAALVNVLEPGDSFLVGANGIWGQRAVDIGERIGARVHPMTKDPGGHYTLQEVEEGLAQHKPVLLFLTHGESSTGVLQPLDGFGELCHRYKCLLLVDSVASLGGTPLYMDRQGIDILYSGSQKALNAPPGTSLISFSDKAKKKMYSRKTKPFSFYLDIKWLANFWGCDDQPRMYHHTIPVISLYSLRESLALIAEQGLENSWRQHREAAAYLHGRLQALGLQLFVKDPALRLPTVTTVAVPAGYDWRDIVSYVMDHFDIEIMGGLGPSTGKVLRIGLLGCNATRENVDRVTEALRAALQHCPKKKL
Does B1 bind?
Result: binds
